Experimental data: patent US20140087995A1 (published 2014)
Numbered stars: 1 amine (or outer) side, 2 acyl side, 3 side chain; on linkers, the order of the positions; unused ones are H or OH. Bridge positions count the residues as written; N and C are the ends. Side chains are listed from the residue outwards. Ends that are not written are not given here. * marks the point of attachment. C20 diacid = O=C(O)CCCCCCCCCCCCCCCCCCC(=O)*; γGlu = O=C(O)[C@H](CCC(=O)[*:2])N[*:1]

T1: human calcitonin receptor (human, UniProt P30988 25-474)
T1 sequence (looked up): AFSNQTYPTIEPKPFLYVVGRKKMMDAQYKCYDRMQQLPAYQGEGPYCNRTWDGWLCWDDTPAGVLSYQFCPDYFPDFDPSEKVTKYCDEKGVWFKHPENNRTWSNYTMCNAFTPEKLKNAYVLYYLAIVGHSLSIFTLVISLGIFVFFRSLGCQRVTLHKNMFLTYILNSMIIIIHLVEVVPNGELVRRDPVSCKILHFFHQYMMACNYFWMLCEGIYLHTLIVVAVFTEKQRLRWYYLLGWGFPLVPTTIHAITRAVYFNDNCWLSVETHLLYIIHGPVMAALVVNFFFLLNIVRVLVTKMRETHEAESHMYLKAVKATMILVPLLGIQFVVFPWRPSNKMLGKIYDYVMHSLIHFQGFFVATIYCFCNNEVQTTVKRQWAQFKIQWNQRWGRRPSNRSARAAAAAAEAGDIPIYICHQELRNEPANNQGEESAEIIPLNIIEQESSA

T2: human amylin 3(a) receptor (human calcitonin receptor co-expressed with RAMP-3) (human, UniProt P30988 25-474; O60896 24-148, limits assumed)
T2 sequence (looked up) 1: T1 sequence (looked up)
T2 sequence (looked up) 2: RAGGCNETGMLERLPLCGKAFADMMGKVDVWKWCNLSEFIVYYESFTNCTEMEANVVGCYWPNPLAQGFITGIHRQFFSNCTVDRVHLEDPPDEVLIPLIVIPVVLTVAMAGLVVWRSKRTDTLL

B1: N^ε1-[(4S)-4-carboxy-4-(19-carboxynonadecanoylamino)butanoyl]-[Ala14,Arg17,Pro21,Pro27,Pro34]-h-amylin (peptide)
peptide: K([γGlu-C20 diacid])CNTATCATQRLAAFLRHSSPNFGAIPSSTNVGPNTY-NH2
modifications: disulfide 2-7; N-terminus assumed
SMILES: CC[C@H](C)[C@H](NC(=O)[C@H](C)NC(=O)CNC(=O)[C@H](Cc1ccccc1)NC(=O)[C@H](CC(N)=O)NC(=O)[C@@H]1CCCN1C(=O)[C@H](CO)NC(=O)[C@H](CO)NC(=O)[C@H](Cc1c[nH]cn1)NC(=O)[C@H](CCCNC(=N)N)NC(=O)[C@H](CC(C)C)NC(=O)[C@H](Cc1ccccc1)NC(=O)[C@H](C)NC(=O)[C@H](C)NC(=O)[C@H](CC(C)C)NC(=O)[C@H](CCCNC(=N)N)NC(=O)[C@H](CCC(N)=O)NC(=O)[C@@H](NC(=O)[C@H](C)NC(=O)[C@@H]1CSSC[C@H](NC(=O)[C@@H](N)CCCCNC(=O)CC[C@H](NC(=O)CCCCCCCCCCCCCCCCCCC(=O)O)C(=O)O)C(=O)N[C@@H](CC(N)=O)C(=O)N[C@@H]([C@@H](C)O)C(=O)N[C@@H](C)C(=O)N[C@@H]([C@@H](C)O)C(=O)N1)[C@@H](C)O)C(=O)N1CCC[C@H]1C(=O)N[C@@H](CO)C(=O)N[C@@H](CO)C(=O)N[C@H](C(=O)N[C@@H](CC(N)=O)C(=O)N[C@H](C(=O)NCC(=O)N1CCC[C@H]1C(=O)N[C@@H](CC(N)=O)C(=O)N[C@H](C(=O)N[C@@H](Cc1ccc(O)cc1)C(N)=O)[C@@H](C)O)C(C)C)[C@@H](C)O
notes: also called compound 94
B2: N^ε1-[(4S)-4-carboxy-4-(19-carboxynonadecanoylamino)butanoyl]-[Glu14,Arg17,Pro21,Pro27,Pro34,Glu35]-h-amylin (peptide)
peptide: K([γGlu-C20 diacid])CNTATCATQRLAEFLRHSSPNFGAIPSSTNVGPETY-NH2
modifications: disulfide 2-7; N-terminus assumed
SMILES: CC[C@H](C)[C@H](NC(=O)[C@H](C)NC(=O)CNC(=O)[C@H](Cc1ccccc1)NC(=O)[C@H](CC(N)=O)NC(=O)[C@@H]1CCCN1C(=O)[C@H](CO)NC(=O)[C@H](CO)NC(=O)[C@H](Cc1c[nH]cn1)NC(=O)[C@H](CCCNC(=N)N)NC(=O)[C@H](CC(C)C)NC(=O)[C@H](Cc1ccccc1)NC(=O)[C@H](CCC(=O)O)NC(=O)[C@H](C)NC(=O)[C@H](CC(C)C)NC(=O)[C@H](CCCNC(=N)N)NC(=O)[C@H](CCC(N)=O)NC(=O)[C@@H](NC(=O)[C@H](C)NC(=O)[C@@H]1CSSC[C@H](NC(=O)[C@@H](N)CCCCNC(=O)CC[C@H](NC(=O)CCCCCCCCCCCCCCCCCCC(=O)O)C(=O)O)C(=O)N[C@@H](CC(N)=O)C(=O)N[C@@H]([C@@H](C)O)C(=O)N[C@@H](C)C(=O)N[C@@H]([C@@H](C)O)C(=O)N1)[C@@H](C)O)C(=O)N1CCC[C@H]1C(=O)N[C@@H](CO)C(=O)N[C@@H](CO)C(=O)N[C@H](C(=O)N[C@@H](CC(N)=O)C(=O)N[C@H](C(=O)NCC(=O)N1CCC[C@H]1C(=O)N[C@@H](CCC(=O)O)C(=O)N[C@H](C(=O)N[C@@H](Cc1ccc(O)cc1)C(N)=O)[C@@H](C)O)C(C)C)[C@@H](C)O
B3: N^ε1-[(4S)-4-carboxy-4-(19-carboxynonadecanoylamino)butanoyl]-[Arg14,Arg17,Pro21,Pro27]-h-amylin (peptide)
peptide: K([γGlu-C20 diacid])CNTATCATQRLARFLRHSSPNFGAIPSSTNVGSNTY-NH2
modifications: disulfide 2-7; N-terminus assumed
SMILES: CC[C@H](C)[C@H](NC(=O)[C@H](C)NC(=O)CNC(=O)[C@H](Cc1ccccc1)NC(=O)[C@H](CC(N)=O)NC(=O)[C@@H]1CCCN1C(=O)[C@H](CO)NC(=O)[C@H](CO)NC(=O)[C@H](Cc1c[nH]cn1)NC(=O)[C@H](CCCNC(=N)N)NC(=O)[C@H](CC(C)C)NC(=O)[C@H](Cc1ccccc1)NC(=O)[C@H](CCCNC(=N)N)NC(=O)[C@H](C)NC(=O)[C@H](CC(C)C)NC(=O)[C@H](CCCNC(=N)N)NC(=O)[C@H](CCC(N)=O)NC(=O)[C@@H](NC(=O)[C@H](C)NC(=O)[C@@H]1CSSC[C@H](NC(=O)[C@@H](N)CCCCNC(=O)CC[C@H](NC(=O)CCCCCCCCCCCCCCCCCCC(=O)O)C(=O)O)C(=O)N[C@@H](CC(N)=O)C(=O)N[C@@H]([C@@H](C)O)C(=O)N[C@@H](C)C(=O)N[C@@H]([C@@H](C)O)C(=O)N1)[C@@H](C)O)C(=O)N1CCC[C@H]1C(=O)N[C@@H](CO)C(=O)N[C@@H](CO)C(=O)N[C@H](C(=O)N[C@@H](CC(N)=O)C(=O)N[C@H](C(=O)NCC(=O)N[C@@H](CO)C(=O)N[C@@H](CC(N)=O)C(=O)N[C@H](C(=O)N[C@@H](Cc1ccc(O)cc1)C(N)=O)[C@@H](C)O)C(C)C)[C@@H](C)O
notes: also called compound 83
B4: N^ε1-[(4S)-4-carboxy-4-(19-carboxynonadecanoylamino)butanoyl]-[Glu14,Arg17,Pro21,Pro27,Pro34,Arg35]-h-amylin (peptide)
peptide: K([γGlu-C20 diacid])CNTATCATQRLAEFLRHSSPNFGAIPSSTNVGPRTY-NH2
modifications: disulfide 2-7; N-terminus assumed
SMILES: CC[C@H](C)[C@H](NC(=O)[C@H](C)NC(=O)CNC(=O)[C@H](Cc1ccccc1)NC(=O)[C@H](CC(N)=O)NC(=O)[C@@H]1CCCN1C(=O)[C@H](CO)NC(=O)[C@H](CO)NC(=O)[C@H](Cc1c[nH]cn1)NC(=O)[C@H](CCCNC(=N)N)NC(=O)[C@H](CC(C)C)NC(=O)[C@H](Cc1ccccc1)NC(=O)[C@H](CCC(=O)O)NC(=O)[C@H](C)NC(=O)[C@H](CC(C)C)NC(=O)[C@H](CCCNC(=N)N)NC(=O)[C@H](CCC(N)=O)NC(=O)[C@@H](NC(=O)[C@H](C)NC(=O)[C@@H]1CSSC[C@H](NC(=O)[C@@H](N)CCCCNC(=O)CC[C@H](NC(=O)CCCCCCCCCCCCCCCCCCC(=O)O)C(=O)O)C(=O)N[C@@H](CC(N)=O)C(=O)N[C@@H]([C@@H](C)O)C(=O)N[C@@H](C)C(=O)N[C@@H]([C@@H](C)O)C(=O)N1)[C@@H](C)O)C(=O)N1CCC[C@H]1C(=O)N[C@@H](CO)C(=O)N[C@@H](CO)C(=O)N[C@H](C(=O)N[C@@H](CC(N)=O)C(=O)N[C@H](C(=O)NCC(=O)N1CCC[C@H]1C(=O)N[C@@H](CCCNC(=N)N)C(=O)N[C@H](C(=O)N[C@@H](Cc1ccc(O)cc1)C(N)=O)[C@@H](C)O)C(C)C)[C@@H](C)O
B5: N^ε1-[(4S)-4-carboxy-4-(19-carboxynonadecanoylamino)butanoyl]-[Glu14,Arg17,Pro21,Pro27,Arg34,Glu35]-h-amylin (peptide)
peptide: K([γGlu-C20 diacid])CNTATCATQRLAEFLRHSSPNFGAIPSSTNVGRETY-NH2
modifications: disulfide 2-7; N-terminus assumed
SMILES: CC[C@H](C)[C@H](NC(=O)[C@H](C)NC(=O)CNC(=O)[C@H](Cc1ccccc1)NC(=O)[C@H](CC(N)=O)NC(=O)[C@@H]1CCCN1C(=O)[C@H](CO)NC(=O)[C@H](CO)NC(=O)[C@H](Cc1c[nH]cn1)NC(=O)[C@H](CCCNC(=N)N)NC(=O)[C@H](CC(C)C)NC(=O)[C@H](Cc1ccccc1)NC(=O)[C@H](CCC(=O)O)NC(=O)[C@H](C)NC(=O)[C@H](CC(C)C)NC(=O)[C@H](CCCNC(=N)N)NC(=O)[C@H](CCC(N)=O)NC(=O)[C@@H](NC(=O)[C@H](C)NC(=O)[C@@H]1CSSC[C@H](NC(=O)[C@@H](N)CCCCNC(=O)CC[C@H](NC(=O)CCCCCCCCCCCCCCCCCCC(=O)O)C(=O)O)C(=O)N[C@@H](CC(N)=O)C(=O)N[C@@H]([C@@H](C)O)C(=O)N[C@@H](C)C(=O)N[C@@H]([C@@H](C)O)C(=O)N1)[C@@H](C)O)C(=O)N1CCC[C@H]1C(=O)N[C@@H](CO)C(=O)N[C@@H](CO)C(=O)N[C@H](C(=O)N[C@@H](CC(N)=O)C(=O)N[C@H](C(=O)NCC(=O)N[C@@H](CCCNC(=N)N)C(=O)N[C@@H](CCC(=O)O)C(=O)N[C@H](C(=O)N[C@@H](Cc1ccc(O)cc1)C(N)=O)[C@@H](C)O)C(C)C)[C@@H](C)O
B6: N^ε1-[(4S)-4-carboxy-4-(19-carboxynonadecanoylamino)butanoyl]-[Arg17,Pro21,Pro27,Arg34]-h-amylin (peptide)
peptide: K([γGlu-C20 diacid])CNTATCATQRLANFLRHSSPNFGAIPSSTNVGRNTY-NH2
modifications: disulfide 2-7; N-terminus assumed
SMILES: CC[C@H](C)[C@H](NC(=O)[C@H](C)NC(=O)CNC(=O)[C@H](Cc1ccccc1)NC(=O)[C@H](CC(N)=O)NC(=O)[C@@H]1CCCN1C(=O)[C@H](CO)NC(=O)[C@H](CO)NC(=O)[C@H](Cc1c[nH]cn1)NC(=O)[C@H](CCCNC(=N)N)NC(=O)[C@H](CC(C)C)NC(=O)[C@H](Cc1ccccc1)NC(=O)[C@H](CC(N)=O)NC(=O)[C@H](C)NC(=O)[C@H](CC(C)C)NC(=O)[C@H](CCCNC(=N)N)NC(=O)[C@H](CCC(N)=O)NC(=O)[C@@H](NC(=O)[C@H](C)NC(=O)[C@@H]1CSSC[C@H](NC(=O)[C@@H](N)CCCCNC(=O)CC[C@H](NC(=O)CCCCCCCCCCCCCCCCCCC(=O)O)C(=O)O)C(=O)N[C@@H](CC(N)=O)C(=O)N[C@@H]([C@@H](C)O)C(=O)N[C@@H](C)C(=O)N[C@@H]([C@@H](C)O)C(=O)N1)[C@@H](C)O)C(=O)N1CCC[C@H]1C(=O)N[C@@H](CO)C(=O)N[C@@H](CO)C(=O)N[C@H](C(=O)N[C@@H](CC(N)=O)C(=O)N[C@H](C(=O)NCC(=O)N[C@@H](CCCNC(=N)N)C(=O)N[C@@H](CC(N)=O)C(=O)N[C@H](C(=O)N[C@@H](Cc1ccc(O)cc1)C(N)=O)[C@@H](C)O)C(C)C)[C@@H](C)O
notes: also called compound 79

target: T1, human calcitonin receptor; experiment: cell-based or functional assay

Row | Ratio hCT/hAmylin funct. | hCTR funct. EC50 [nM] | Binder
1 | 4.5 | 0.316 | B1
2 | 5.2 | 0.841 | B2
3 | 41.6 | 16.8 | B3
4 | 17 | 6.38 | B4
5 | 6.5 | 2.75 | B5
6 | 24.5 | 3.94 | B6

target: T2, human amylin 3(a) receptor (human …); experiment: cell-based or functional assay

Row | hAmylin-R funct. EC50 [pM] | Binder
7 | 70 | B1
8 | 161 | B2
9 | 405 | B3
10 | 376 | B4
11 | 421 | B5
12 | 161 | B6
